The labels stand for the following.
B3: InvG (outer membrane secretin) in the purified needle complex (natural protein)
chain: SEKIPVTGSGFVAKDDSLRTFFDAMALQLKEPVIVSKMAARKKITGNFEFHDPNALLEKLSLQLGLIWYFDGQAIYIYDASEMRNAVVSLRNVSLNEFNNFLKRSGLYNKNYPLRGDNRKGTFYVSGPPVYVDMVVNAATMMDKQNDGIELGRQKIGVMRLNNTFVGDRTYNLRDQKMVIPGIATAIERLLQGEEQPLGNIVSSEPPAMPAFSANGEKGKAANYAGGMSLQEALKQNAAAGNIKIVAYPDTNSLLVKGTAEQVHFIEMLVKALDVAKRHVELSLWIVDLNKSDLERLGTSWSGSITIGDKLGVSLNQSSISTLDGSRFIAAVNALEEKKQATVVSRPVLLTQENVPAIFDNNRTFYTKLIGERNVALEHVTYGTMIRVLPRFSADGQIEMSLDIEDGNDKTPQSDTTTSVDALPEVGRTLISTIARVPHGKSLLVGGYTRDANTDTVQSIPFLGKLPLIGSLFRYSSKNKSNVVRVFMIEPKEIVDPLTPDASESVNNILKQSGAWSGDDKLQKWVRVYLDRGQEAIK
notes: InvG, secretin of the Salmonella Typhimurium SPI-1 type III secretion system, native protein in the needle complex; the final model covers residues 34-557 (N3 domain loop 228-251 disordered); Native protein stood in the sample; 34-557 was modelled (core 176-557 at 3.9 Å); also called InvG_(34–557); InvG_(176–557); source: endogenous, ΔflhD Salmonella SL1344 with HilA on a pBAD plasmid; needle …
B4: PrgH (inner membrane ring protein) in the purified needle complex (natural protein)
chain: METSKEKTITSPGPYIVRLLNSSLNGCEFPLLTGRTLFVVGQSDALTASGQLPDIPADSFFIPLDHGGVNFEIQVDTDATEIILHELKEGNSESRSVQLNTPIQVGELLILIRPESEPWVPEQPEKLETSAKKNEPRFKNGIVAALAGFFILGIGTVGTLWILNSPQRQAAELDSLLGQEKERFQVLPGRDKMLYVAAQNERDTLWARQVLARGDYDKNARVINENEENKRISIWLDTYYPQLAYYRIHFDEPRKPVFWLSRQRNTMSKKELEVLSQKLRALMPYADSVNITLMDDVTAAGQAEAGLKQQALPYSRRNHKGGVTFVIQGALDDVEILRARQFVDSYYRTWGGRYVQFAIELKDDWLKGRSFQYGAEGYIKMSPGHWYFPSPL
notes: PrgH, Salmonella Typhimurium SPI-1 type III secretion system, native protein in the needle complex; Native protein stood in the sample; only 171-364 was modelled; also called PrgH_(171–364); IM rings; source: endogenous, ΔflhD Salmonella SL1344 with HilA on a pBAD plasmid; needle complex purified (LDAO lysis, centrifugation, CsCl gradient, Superose 6); copies: 24

Data set [1] deals with the molecule itself. In words: cryo-EM structure; isolated needle filaments, helical reconstruction in Relion, 3.3 Å (helical rise 4.33 Å, turn 63.34°), de novo model.
The target in data set [2] is B3. Description: cryo-EM structure; purified needle complex; unsymmetrised C1 reconstruction, 7.4 Å; molecular envelope, needle model fitted with Chimera. Particulars: both partners purified.
Data set [3] concerns the molecule itself. In words: cryo-EM structure; purified needle complex; symmetrised reconstructions with atomic models: C24 IM rings 3.6 Å; signal subtraction and focussed refinement of the secretin with C15, 4.1 Å (whole) and 3.9 Å (core).
Data set [4] addresses B4. The data set is described as above. Particulars: both partners purified.

The stoichiometry N is the number of molecules, sites or subunits per partner or assembly.

B1: PrgI (needle protein), isolated needle filament (natural protein)
chain: MATPWSGYLDDVSAKFDTGVDNLQTQVTEALDKLAAKPSDPALLAAYQSKLSEYNLYRNAQSNTVKVFKDIDAAIIQNFR
notes: PrgI, needle protein of the Salmonella Typhimurium SPI-1 type III secretion system; the model covers residues 3-80 (lacks only the first two N-terminal residues; C-terminal residue Arg80); Helical polymer of many copies; also called the needle; PrgI_(3–80); source: non-flagellated ΔPrgI Salmonella Typhimurium complemented with PrgI and hilA on pBAD plasmid; filaments removed by vigorous stirring, …
As for B1, in data set [1], the binding result is listed as “binds”.

B2: PrgI (needle protein) in the purified needle complex (natural protein, UniProt P41784 1-80, looked up)
chain: MATPWSGYLDDVSAKFDTGVDNLQTQVTEALDKLAAKPSDPALLAAYQSKLSEYNLYRNAQSNTVKVFKDIDAAIIQNFR
notes: PrgI, needle protein of the Salmonella Typhimurium SPI-1 type III secretion system, as part of the native needle complex; Not resolved at high resolution inside the needle complex; the model of the isolated needle was fitted into the C1 map; also called the needle; needle filament; source: endogenous, ΔflhD Salmonella SL1344 with HilA on a pBAD plasmid; needle complex purified (LDAO lysis, …)
For the molecule B2, in data set [2], the binding result is “binds”.
Regarding B3, in data set [3], the “stoichiometry N” value was 15.
Take B4: in data set [2], the binding result is “binds”. Moreover, in data set [3], the “stoichiometry N” value turned out to be 24.

B5: PrgK (inner membrane ring protein) in the purified needle complex (natural protein)
chain: CKDKDLLKGLDQEQANEVIAVLQMHNIEANKIDSGKLGYSITVAEPDFTAAVYWIKTYQLPPRPRVEIAQMFPADSLVSSPRAEKARLYSAIEQRLEQSLQTMEGVLSARVHISYDIDAGENGRPPKPVHLSALAVYERGSPLAHQISDIKRFLKNSFADVDYDNISVVLSERSDAQLQAPGTPVKRNSFATSWIVLIILLSVMSAGFGVWYYKNHYARNKKGITADDKAKSSNE
notes: PrgK, Salmonella Typhimurium SPI-1 type III secretion system, native protein in the needle complex; Native protein stood in the sample; only 20-203 was modelled; also called PrgK_(20–203); IM rings; source: endogenous, ΔflhD Salmonella SL1344 with HilA on a pBAD plasmid; needle complex purified (LDAO lysis, centrifugation, CsCl gradient, Superose 6); copies: 24
For the molecule B5, the binding result in data set [4] is recorded as “binds”. Also, the “stoichiometry N” value in data set [3] is 24.

The values above are taken from article PMC6155069, “Cryo-EM analysis of the T3S injectisome reveals the structure of the needle and open secretin” (Nature Communications, 2018).
